Experimental findings from patent publication US20110086806A1 (published 2011) are described below.

T1: recombinant human IL-23R/Fc chimera (R&D Systems) (human, UniProt Q5VWK5 24-355)
T1 construct: Bought; also called rhIL23RFc
T1 sequence (looked up): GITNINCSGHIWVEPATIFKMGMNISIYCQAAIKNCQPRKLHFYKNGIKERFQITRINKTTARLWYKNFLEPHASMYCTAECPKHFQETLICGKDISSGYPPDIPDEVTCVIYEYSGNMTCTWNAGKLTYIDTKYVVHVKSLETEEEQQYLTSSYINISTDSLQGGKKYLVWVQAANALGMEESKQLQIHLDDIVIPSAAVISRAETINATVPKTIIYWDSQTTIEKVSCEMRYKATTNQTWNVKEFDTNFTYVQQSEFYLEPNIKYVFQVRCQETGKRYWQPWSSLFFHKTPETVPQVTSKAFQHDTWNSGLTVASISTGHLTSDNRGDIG

B1: 105-08-1C9 ATRIMER complex (designed binder)
chain: EPPTQKPKKIVNAKKDVVNTKMFEELKSRLDTLAQEVALLKEQQALQTVCLKGTKVHMKCFLAFTQTKTFHEASEDCISRGGTLSTPQTGSENDALYEYLRQSVGNEAEIWLGLNGSTLTDTWVDMTGARIAYKNWETEITAQPDGGFGYFGENCAVLSGAANGKWFDKRCRDQLPYICQFGIV
B2: 105-08-1G12 ATRIMER complex (designed binder)
chain: EPPTQKPKKIVNAKKDVVNTKMFEELKSRLDTLAQEVALLKEQQALQTVCLKGTKVHMKCFLAFTQTKTFHEASEDCISRGGTLSTPQTGSENDALYEYLRQSVGNEAEIWLGLNGSLRTGTWVDMTGARIAYKNWETEITAQPDGGWGYFGENCAVLSGAANGKWFDKRCRDQLPYICQFGIV
modifications: Homotrimer (ATRIMER complex) of the one chain given.
B3: 105-08-2C12 ATRIMER complex (designed binder, not shown: small tags and cut ends)
chain: EPPTQKPKKIVNAKKDVVNTKMFEELKSRLDTLAQEVALLKEQQALQTVCLKGTKVHMKCFLAFTQTKTFHEASEDCISRGGTLSTPQTGSENDALYEYLRQSVGNEAEIWLGLNGSQRTDTWVDMTGARIAYKNWETEITAQPDGGFGYFGENCAVLSGAANGKWFDKRCRDQLPYICQFGIV
B4: 105-08-2E12 ATRIMER complex (designed binder)
chain: EPPTQKPKKIVNAKKDVVNTKMFEELKSRLDTLAQEVALLKEQQALQTVCLKGTKVHMKCFLAFTQTKTFHEASEDCISRGGTLSTPQTGSENDALYEYLRQSVGNEAEIWLGLNGSGLTDTWVDMTGARIAYKNWETEITAQPDGGWGYFGENCAVLSGAANGKWFDKRCRDQLPYICQFGIV
B5: 105-08-1G9 ATRIMER complex (designed binder)
chain: EPPTQKPKKIVNAKKDVVNTKMFEELKSRLDTLAQEVALLKEQQALQTVCLKGTKVHMKCFLAFTQTKTFHEASEDCISRGGTLSTPQTGSENDALYEYLRQSVGNEAEIWLGLNGSPKTDTWVDMTGARIAYKNWETEITAQPDGGFGYFGENCAVLSGAANGKWFDKRCRDQLPYICQFGIV
B6: 105-08-2C4 ATRIMER complex (designed binder)
chain: EPPTQKPKKIVNAKKDVVNTKMFEELKSRLDTLAQEVALLKEQQALQTVCLKGTKVHMKCFLAFTQTKTFHEASEDCISRGGTLSTPQTGSENDALYEYLRQSVGNEAEIWLGLNGSLLTNTWVDMTGARIAYKNWETEITAQPDGGFGYFGENCAVLSGAANGKWFDKRCRDQLPYICQFGIV
modifications: ATRIMER complex: homotrimer of three copies of this chain, joined by the tetranectin coiled coil
notes: not shown: C-terminal tag: Myc/His (pANA4) or HA-StrepII (pANA10)
B7: 105-08-1D10 ATRIMER complex (designed binder)
chain: EPPTQKPKKIVNAKKDVVNTKMFEELKSRLDTLAQEVALLKEQQALQTVCLKGTKVHMKCFLAFTQTKTFHEASEDCISRGGTLSTPQTGSENDALYEYLRQSVGNEAEIWLGLNGSARTGTWVDMTGARIAYKNWETEITAQPDGGWGYFGENCAVLSGAANGKWFDKRCRDQLPYICQFGIV
B8: 105-08-2C11 ATRIMER complex (designed binder)
chain: EPPTQKPKKIVNAKKDVVNTKMFEELKSRLDTLAQEVALLKEQQALQTVCLKGTKVHMKCFLAFTQTKTFHEASEDCISRGGTLSTPQTGSENDALYEYLRQSVGNEAEIWLGLNGSLKTQTWVDMTGARIAYKNWETEITAQPDGGWGYFGENCAVLSGAANGKWFDKRCRDQLPYICQFGIV
B9: 105-08-2C8 ATRIMER complex (designed binder)
chain: EPPTQKPKKIVNAKKDVVNTKMFEELKSRLDTLAQEVALLKEQQALQTVCLKGTKVHMKCFLAFTQTKTFHEASEDCISRGGTLSTPQTGSENDALYEYLRQSVGNEAEIWLGLNGSWLTDTWVDMTGARIAYKNWETEITAQPDGGWGYFGENCAVLSGAANGKWFDKRCRDQLPYICQFGIV
B10: 105-08-1C11 ATRIMER complex (designed binder)
chain: EPPTQKPKKIVNAKKDVVNTKMFEELKSRLDTLAQEVALLKEQQALQTVCLKGTKVHMKCFLAFTQTKTFHEASEDCISRGGTLSTPQTGSENDALYEYLRQSVGNEAEIWLGLNGSSRTDTWVDMTGARIAYKNWETEITAQPDGGFGYFGENCAVLSGAANGKWFDKRCRDQLPYICQFGIV
modifications: ATRIMER complex: homotrimer of three copies of this chain, joined by the tetranectin coiled coil
notes: as for B6
B11: 105-08-1C10 ATRIMER complex (designed binder)
chain: EPPTQKPKKIVNAKKDVVNTKMFEELKSRLDTLAQEVALLKEQQALQTVCLKGTKVHMKCFLAFTQTKTFHEASEDCISRGGTLSTPQTGSENDALYEYLRQSVGNEAEIWLGLNGSSVTNTWVDMTGARIAYKNWETEITAQPDGGWGYFGENCAVLSGAANGKWFDKRCRDQLPYICQFGIV
B12: 105-08-2D2 ATRIMER complex (designed binder)
chain: EPPTQKPKKIVNAKKDVVNTKMFEELKSRLDTLAQEVALLKEQQALQTVCLKGTKVHMKCFLAFTQTKTFHEASEDCISRGGTLSTPQTGSENDALYEYLRQSVGNEAEIWLGLNGSARTGTWVDMTGARIAYKNWETEITAQPDGGFGYFGENCAVLSGAANGKWFDKRCRDQLPYICQFGIV
B13: 105-08-2A1 ATRIMER complex (designed binder)
chain: EPPTQKPKKIVNAKKDVVNTKMFEELKSRLDTLAQEVALLKEQQALQTVCLKGTKVHMKCFLAFTQTKTFHEASEDCISRGGTLSTPQTGSENDALYEYLRQSVGNEAEIWLGLNGSMRTDTWVDMTGARIAYKNWETEITAQPDGGWGYFGENCAVLSGAANGKWFDKRCRDQLPYICQFGIV
B14: 105-08-2C9 ATRIMER complex (designed binder)
chain: EPPTQKPKKIVNAKKDVVNTKMFEELKSRLDTLAQEVALLKEQQALQTVCLKGTKVHMKCFLAFTQTKTFHEASEDCISRGGTLSTPQTGSENDALYEYLRQSVGNEAEIWLGLNGSTLTNTWVDMTGARIAYKNWETEITAQPDGGWGYFGENCAVLSGAANGKWFDKRCRDQLPYICQFGIV
B15: 105-08-1D1 ATRIMER complex (designed binder, not shown: small tags and cut ends)
chain: EPPTQKPKKIVNAKKDVVNTKMFEELKSRLDTLAQEVALLKEQQALQTVCLKGTKVHMKCFLAFTQTKTFHEASEDCISRGGTLSTPQTGSENDALYEYLRQSVGNEAEIWLGLNGSALTDTWVDMTGARIAYKNWETEITAQPDGGWGYFGENCAVLSGAANGKWFDKRCRDQLPYICQFGIV
B16: 105-08-2C1 ATRIMER complex (designed binder, not shown: small tags and cut ends)
chain: EPPTQKPKKIVNAKKDVVNTKMFEELKSRLDTLAQEVALLKEQQALQTVCLKGTKVHMKCFLAFTQTKTFHEASEDCISRGGTLSTPQTGSENDALYEYLRQSVGNEAEIWLGLNGSSLTDTWVDMTGARIAYKNWETEITAQPDGGWGYFGENCAVLSGAANGKWFDKRCRDQLPYICQFGIV
B17: 105-08-2B3 ATRIMER complex (designed binder, not shown: small tags and cut ends)
chain: EPPTQKPKKIVNAKKDVVNTKMFEELKSRLDTLAQEVALLKEQQALQTVCLKGTKVHMKCFLAFTQTKTFHEASEDCISRGGTLSTPQTGSENDALYEYLRQSVGNEAEIWLGLNGSAITNTWVDMTGARIAYKNWETEITAQPDGGWGYFGENCAVLSGAANGKWFDKRCRDQLPYICQFGIV
B18: 105-08-1D12 ATRIMER complex (designed binder)
chain: EPPTQKPKKIVNAKKDVVNTKMFEELKSRLDTLAQEVALLKEQQALQTVCLKGTKVHMKCFLAFTQTKTFHEASEDCISRGGTLSTPQTGSENDALYEYLRQSVGNEAEIWLGLNGSVLTDTWVDMTGARIAYKNWETEITAQPDGGFGYFGENCAVLSGAANGKWFDKRCRDQLPYICQFGIV
notes: not shown: C-terminal tag: His/Myc (pANA4) or HA-StrepII (pANA10)
B19: 105-08-2C6 ATRIMER complex (designed binder)
chain: EPPTQKPKKIVNAKKDVVNTKMFEELKSRLDTLAQEVALLKEQQALQTVCLKGTKVHMKCFLAFTQTKTFHEASEDCISRGGTLSTPQTGSENDALYEYLRQSVGNEAEIWLGLNGSQRTDTWVDMTGARIAYKNWETEITAQPDGGWGYFGENCAVLSGAANGKWFDKRCRDQLPYICQFGIV
B20: 105-08-1D2 ATRIMER complex (designed binder)
chain: EPPTQKPKKIVNAKKDVVNTKMFEELKSRLDTLAQEVALLKEQQALQTVCLKGTKVHMKCFLAFTQTKTFHEASEDCISRGGTLSTPQTGSENDALYEYLRQSVGNEAEIWLGLNGSPVTDTWVDMTGARIAYKNWETEITAQPDGGFGYFGENCAVLSGAANGKWFDKRCRDQLPYICQFGIV
notes: as for B18
B21: 105-08-1G2 ATRIMER complex (designed binder)
chain: EPPTQKPKKIVNAKKDVVNTKMFEELKSRLDTLAQEVALLKEQQALQTVCLKGTKVHMKCFLAFTQTKTFHEASEDCISRGGTLSTPQTGSENDALYEYLRQSVGNEAEIWLGLNGSSKTNTWVDMTGARIAYKNWETEITAQPDGGWGYFGENCAVLSGAANGKWFDKRCRDQLPYICQFGIV

For the experiment, the target named is T1, recombinant human IL-23R/Fc chimera …. Description: competition ELISA vs IL-23. Here is the method: Assays were performed generally as follows. Individual wells in Immulon HB2 plates were incubated overnight at 4° C. with 100 μL PBS containing 100 ng of an anti-human IgG Fc (R&D MAB 110 clone 97924). Plates were washed five times with PBS/0.05% Tween 20, and wells were incubated for 1.5 h at RT with 100 μL each of PBS containing 50 ng of recombinant human IL-23R/Fc. […] Competitor was included at a final concentration of 1 μg/mL. After incubation, plates were washed as described and wells were incubated for 40 min at RT with 100 μL each of PBS containing a 1:5000 dilution of streptavidin-HRP conjugate (Pierce catalog no. 21130). After washing, wells were incubated with 100 μL each of TMB (BioFX Lab catalog no. TMBH-1000-0) for up to 30 min at RT. Reactions were stopped with an equal volume of 0.2 M sulfuric acid.
A general note: An ELISA detects its analyte on a solid surface through an enzyme-linked reagent.
On to B1, for which the “Ratio IC50 to 056-53.H4E IC50” value stood at 7.4.
For the molecule B2, the “Ratio IC50 to 056-53.H4E IC50” value is 13.2.
As for B3, the figure is 3.3; as for B4, 9.1.
Turning to B5, the “Ratio IC50 to 056-53.H4E IC50” value is 2.4.
On to B6, for which the “Ratio IC50 to 056-53.H4E IC50” value worked out at 2.9.
Consider B7, for which the “Ratio IC50 to 056-53.H4E IC50” value amounted to 5.5.
As for B8, the figure is 9.1; as for B9, 8.4.
B10: the “Ratio IC50 to 056-53.H4E IC50” value was 2.8.
B11: the “Ratio IC50 to 056-53.H4E IC50” value was 5.
To B12 belongs 4.1; to B13, 5; to B14, 5.3.
As for B15, the figure is 3.6; as for B16, 3.6.
As for B17, the figure is 3.4; as for B18, 4.6.
Take B19: the “Ratio IC50 to 056-53.H4E IC50” value is 3.6.
As for B20, the figure is 4.3.
To B21 belongs 5.5.
